Experimental data as given in patent US20040096894A1 (published 2004).
Square brackets hold non-standard residues; d marks the D form. Ends that are not written are not given here. sY = N[C@@H](Cc1ccc(OS(=O)(=O)O)cc1)C(=O)O; pGlu = O=C1CC[C@@H](C(=O)O)N1

B1: P-selectin lectin and EGF-like (LE) domains, monomeric (receptor, human, UniProt P16109 42-198, looked up)
chain: WTYHYSTKAYSWNISRKYCQNRYTDLVAIQNKNEIDYLNKVLPYYSSYYWIGIRKNNKTWTWVGTKKALTNEAENWADNEPNNKRNNEDCVEIYIKSPSAPGKWNDEHCLKKKHALCYTASCQDMSCSKQGECLETIGNYTCSCYPGFYGPECEYVR
modifications: three N-linked glycans when expressed in CHO cells; glycosylated form used for BIAcore, N-glycanase-deglycosylated form used for crystals
notes: domain: lectin and EGF-like (LE) domains; also called P-LE; P-selectin lectin/EGF domains

Legend:
[1] = target: T1, PSGL-1 19ek peptide SGP-1 (monosulfated form of SGP-3) (human, UniProt Q14242 42-60, one tyrosine sulfate (position not resolved; every permutation present); SLe^X-containing core2 O-glycan at Thr-16; biotinylated at Lys residues); assay: BIAcore SPR, equilibrium; solution-phase P-LE over immobilized biotinylated SGP-1
T1 construct: domain: N-terminal 19 amino acids of PSGL-1; Same polypeptide as SGP-3, less modified; also called monosulfated species
T1 sequence (Q14242 42-60, looked up): QATEYEYLDYDFLPETEPP
Description: (§1) Second row, left-to-right: SGP-1 (FIGS. 1C-4), GP-1 (FIGS. 1C-5) and SP-1 (FIGS. 1C-6). […] KDs and standard deviations (shown) were determined by line-fitting of specific binding curves using BIAevaluation software (BIAcore) and are the products of three-to-ten separate experiments.
(§2) Surface plasmon resonance was performed on BIAcore 2000 and 3000 instruments at 25° C. using streptavidin-coated sensor chips (BIAcore) and HBS-P buffer (BIAcore; 10 mM HEPES (pH 7.4), 150 mM NaCl, and 0.005% polysorbate 20 (v/v)) adjusted to 1 mM each CaCl₂ and MgCl₂. The 19ek peptides and sPSGL, a fucosyltransferase-VII modified version of the entire dimeric extracellular domain of PSGL-1 (Croce et al., 1998), were biotinylated at Lys residues with Sulfo-NHS-LC-Biotin (Pierce). Following biotinylation, sPSGL was reacted with immobilized P-selectin in order to isolate functional material (Sako et al., 1995). […] Biotinylated reagents were coated onto sensor chips using HBS-P buffer.

[2] = target: T2, PSGL-1 19ek peptide sulfopeptide-1 (SP-1) (human, UniProt Q14242 42-60, tyrosine sulfated; no carbohydrate; biotinylated at Lys residues); assay: BIAcore SPR, equilibrium; solution-phase P-LE over immobilized biotinylated SP-1
T2 construct: domain: N-terminal 19 amino acids of PSGL-1; Form of SGP-3 containing no carbohydrate
T2 sequence (Q14242 42-60, looked up): QATEYEYLDYDFLPETEPP
Description: as §1, §2

[3] = target: T3, PSGL-1 19ek peptide SGP-2 (disulfated form of SGP-3) (human, UniProt Q14242 42-60, two tyrosine sulfates (positions not resolved; every permutation present); SLe^X-containing core2 O-glycan at Thr-16; biotinylated at Lys residues); assay: BIAcore SPR, equilibrium; solution-phase P-LE over immobilized biotinylated SGP-2
T3 construct: domain: N-terminal 19 amino acids of PSGL-1; Same polypeptide as SGP-3, less modified; also called disulfated species
T3 sequence (Q14242 42-60, looked up): QATEYEYLDYDFLPETEPP
Description: as §1, §2

[4] = target: T4, PSGL-1 19ek peptide glycopeptide-1 (GP-1) (human, UniProt Q14242 42-60, no tyrosine sulfates; SLe^X-containing core2 O-glycan at Thr-16; biotinylated at Lys residues); assay: BIAcore SPR, equilibrium; solution-phase P-LE over immobilized biotinylated GP-1
T4 construct: domain: N-terminal 19 amino acids of PSGL-1; Form of SGP-3 containing no tyrosine sulfates
T4 sequence (Q14242 42-60, looked up): QATEYEYLDYDFLPETEPP
Description: as §1, §2

[5] = target: B1; assay: BIAcore SPR, equilibrium; solution-phase P-LE over immobilized biotinylated SGP-3, 25 °C
Description: as §1, §2

## B1
[1]
  Kd: 12.3 µM
[2]
  Kd: ~113 µM
[3]
  Kd: 2.88 µM
[4]
  Kd: ~31.1 µM

## [pGlu]ATE[sY]E[sY]LD[sY]DFLPET(SLeX core2 O‑glycan)EPP (also: biotinylated at Lys residues when immobilized, site not placed) [PSGL-1 19ek peptide sulfoglycopeptide-3 (SGP-3)]
[5]
  Kd: 0.778 µM
